From PMC6256756

Substrate: Nc1nc2c(ncn2[C@@H]2O[C@H](COP(=O)(O)OP(=O)(O)OP(=O)(O)O)[C@@H](O)[C@H]2O)c(=O)[nH]1
Test: steady-state kinetics, PK/LDH coupled GTPase assay (Km)
Format: biochemical, Burkholderia cenocepacia
Conditions: Mg2+ GTP binding site

B1: FtsZ (BcFtsZ) (Burkholderia cenocepacia J2315) (protein)
chain: MEFEMLETETNGTIIKVVGVGGAGGNAVQHMINRGVQGVDFIVMNTDAQALSRSRASSVIQLGNTGLGAGAKPEMGRAAAEEARERIADALRGAHMVFITAGMGGGTGTGAAPVVAQIAKEMGILTVGVVSKPFEFEGGKRMRVAEAGSQQLEDHVDSLIVVLNDKLFDVMGDDAEMDKCFQCADDVLNNAVAGIAEIINVDGLVNVDFEDVKTVMGEQGKAMMGTATVAGVDRARLAAEQAVASPLLEGVDLSGARGVLVNITSSRSLRLSETREVMNTIKSYAAEDATVIFGAVYDDAMGDALRVTVVATGLGRAAKKQQSAPMTLLRTGTDNQPVSAVSHGYAPAQHVSTADYGALDTPAVWRNSRETAASHVQALQEKGVDTYDIPAFLRKQAD
notes: recombinant BcFtsZ (BCAL3457) from pET-28a, N-terminal histidine tag removed with PreScission protease
- Km: 6.4 ± 0.8 µM
